What was measured:
[1] = system: AGPPase (soluble and particulate isoforms); experiment: AGPPase enzymatic assay (two-step spectrophotometric determination of G1P produced from ADPG); format: biochemical, barley (Hordeum vulgare), tomato (Lycopersicon sculentum)
[2] = Stability of AGPPase to pH and temperature; format: physicochemical; conditions: 65° C. for 30 minutes

Molecule	Resistance of AGPPase to ionic detergents and proteases [1]	Heat resistance of soluble AGPPase [2]
K proteinase: protease (Boehringer) (protein, UniProt P06873 106-384, looked up) Proteinase K: AAQTNAPWGLARISSTSPGTSTYYYDESAGQGSCVYVIDTGIEASHPEFEGRAQMVKTYYYSSRDGNGHGTHCAGTVGSRTYGVAKKTQLFGVKVLDDNGSGQYSTIIAGMDFVASDKNNRNCPKGVVASLSLGGGYSSSVNSAAARLQSSGVMVAVAAGNNNADARNYSPASEPSVCTVGASDRYDRRSSFSNYGSVLDIFGPGTSILSTWIGGSTRSISGTSMATPHVAGLAAYLMTLGKTTAASACRYIADTANKGDLSNIPFGTVNLLAYNNYQA	resistant	
Soluble AGPPase: soluble isoform of AGPPase purified from barley leaves, a germin-like glycoprotein (protein, Hordeum vulgare cv. Scarlett; Soluble AGPPase deduced from cDNA, soluble isoform of AGPPase purified from barley leaves, a germin-like glycoprotein) MANAMLLPVLVSFLVLPFSAMALTQDFCVADLSCSDTPAGYPCKTGVGAGDFYYHGLAAAGNTSNLIKAAVTPAFVGQFPGVNGLGISAARLDIAVGGVVPMHTHPAASELLFVTEGTILAGFISSSSNTVYTKTLYKGDIMVFPQGLLHYQYNGGSSSAVALVAFSGPNPGLQITDYALFANNLPSAVVEKVTFLDDAQVKKLKSVLGGSG		resistant
